Measurements taken from patent publication US20180273587A1 (AILERON THERAPEUTICS, published 2018).
Positions of bridges follow the written chain, without caps; N, C: chain ends. Non-standard residues stand in square brackets, D forms with d. 2Nal = N[C@@H](Cc1ccc2ccccc2c1)C(=O)O; R8 = C=CCCCCCC[C@@](C)(N)C(=O)O; Cha = N[C@@H](CC1CCCCC1)C(=O)O; Cba = N[C@@H](CC1CCC1)C(=O)O; hLeu = CC(C)CC[C@H](N)C(=O)O; S5 = C=CCCC[C@](C)(N)C(=O)O

Assays:
Assay in all cases: Ki table, method not stated
MCL-1 = molecular target: T1, MCL-1 (UniProt Q07820 172-327, limits assumed)
T1 construct: also called Myeloid cell leukemia 1

BCL-XL = BCL-XL (UniProt Q07817 1-209)
BCL-2 = BCL-2 (UniProt P10415 1-217, limits assumed)
BCL-2, sequence (P10415 1-217 limits assumed): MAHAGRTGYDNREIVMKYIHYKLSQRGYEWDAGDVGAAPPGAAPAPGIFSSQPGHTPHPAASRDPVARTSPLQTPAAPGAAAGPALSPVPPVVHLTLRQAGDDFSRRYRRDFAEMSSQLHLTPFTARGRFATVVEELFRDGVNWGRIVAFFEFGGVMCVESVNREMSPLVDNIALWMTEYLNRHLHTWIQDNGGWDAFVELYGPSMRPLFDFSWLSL

T1 sequence (Q07820 172-327 limits assumed): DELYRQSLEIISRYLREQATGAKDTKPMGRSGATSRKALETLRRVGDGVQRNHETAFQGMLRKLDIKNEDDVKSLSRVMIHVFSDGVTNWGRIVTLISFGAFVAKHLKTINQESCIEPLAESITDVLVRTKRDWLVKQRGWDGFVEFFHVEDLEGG
BCL-XL, sequence (Q07817 1-209): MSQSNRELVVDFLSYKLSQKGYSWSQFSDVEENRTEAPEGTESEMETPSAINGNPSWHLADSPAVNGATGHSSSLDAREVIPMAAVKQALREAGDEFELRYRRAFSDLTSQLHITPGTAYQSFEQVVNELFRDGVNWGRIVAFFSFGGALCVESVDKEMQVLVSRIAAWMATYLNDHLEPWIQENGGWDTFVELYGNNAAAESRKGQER

Binder | Ki (MCL-1) [nM] | Ki (BCL-XL) [nM] | Ki (BCL-2) [nM]
Ac-IWIAQA[2Nal]R[R8]IGDAFN[S5]YYA-NH2 (staple 9-16; SMILES CC[C@H](C)[C@H](NC(C)=O)C(=O)N[C@@H](Cc1c[nH]c2ccccc12)C(=O)N[C@H](C(=O)N[C@@H](C)C(=O)N[C@@H](CCC(N)=O)C(=O)N[C@@H](C)C(=O)N[C@@H](Cc1ccc2ccccc2c1)C(=O)N[C@@H](CCCNC(=N)N)C(=O)N[C@]1(C)CCCCCCC=CCCC[C@@](C)(C(=O)N[C@@H](Cc2ccc(O)cc2)C(=O)N[C@@H](Cc2ccc(O)cc2)C(=O)N[C@@H](C)C(N)=O)NC(=O)[C@H](CC(N)=O)NC(=O)[C@H](Cc2ccccc2)NC(=O)[C@H](C)NC(=O)[C@H](CC(=O)O)NC(=O)CNC(=O)[C@H]([C@@H](C)CC)NC1=O)[C@@H](C)CC, also called Ac-IWIAQA2NalR$r8IGDAFN$YYA-NH2) [SEQ ID NO: 1696] | 120 | 17.3 | 234
Ac-IWIAQALR[R8][hLeu]GDAFN[S5]YYA-NH2 (staple 9-16; SMILES CC[C@H](C)[C@H](NC(C)=O)C(=O)N[C@@H](Cc1c[nH]c2ccccc12)C(=O)N[C@H](C(=O)N[C@@H](C)C(=O)N[C@@H](CCC(N)=O)C(=O)N[C@@H](C)C(=O)N[C@@H](CC(C)C)C(=O)N[C@@H](CCCNC(=N)N)C(=O)N[C@]1(C)CCCCCCC=CCCC[C@@](C)(C(=O)N[C@@H](Cc2ccc(O)cc2)C(=O)N[C@@H](Cc2ccc(O)cc2)C(=O)N[C@@H](C)C(N)=O)NC(=O)[C@H](CC(N)=O)NC(=O)[C@H](Cc2ccccc2)NC(=O)[C@H](C)NC(=O)[C@H](CC(=O)O)NC(=O)CNC(=O)[C@H](CCC(C)C)NC1=O)[C@@H](C)CC) [SEQ ID NO: 1699] | 13 | 6 | 12.7
Ac-IWIAQALR[R8][Cha]GDAFN[S5]YYA-NH2 (staple 9-16; SMILES CC[C@H](C)[C@H](NC(C)=O)C(=O)N[C@@H](Cc1c[nH]c2ccccc12)C(=O)N[C@H](C(=O)N[C@@H](C)C(=O)N[C@@H](CCC(N)=O)C(=O)N[C@@H](C)C(=O)N[C@@H](CC(C)C)C(=O)N[C@@H](CCCNC(=N)N)C(=O)N[C@]1(C)CCCCCCC=CCCC[C@@](C)(C(=O)N[C@@H](Cc2ccc(O)cc2)C(=O)N[C@@H](Cc2ccc(O)cc2)C(=O)N[C@@H](C)C(N)=O)NC(=O)[C@H](CC(N)=O)NC(=O)[C@H](Cc2ccccc2)NC(=O)[C@H](C)NC(=O)[C@H](CC(=O)O)NC(=O)CNC(=O)[C@H](CC2CCCCC2)NC1=O)[C@@H](C)CC) [SEQ ID NO: 1700] | 15.9 | 7.1 | 109
Ac-IWIAQALR[R8][Cba]GDAFN[S5]YYA-NH2 (staple 9-16; SMILES CC[C@H](C)[C@H](NC(C)=O)C(=O)N[C@@H](Cc1c[nH]c2ccccc12)C(=O)N[C@H](C(=O)N[C@@H](C)C(=O)N[C@@H](CCC(N)=O)C(=O)N[C@@H](C)C(=O)N[C@@H](CC(C)C)C(=O)N[C@@H](CCCNC(=N)N)C(=O)N[C@]1(C)CCCCCCC=CCCC[C@@](C)(C(=O)N[C@@H](Cc2ccc(O)cc2)C(=O)N[C@@H](Cc2ccc(O)cc2)C(=O)N[C@@H](C)C(N)=O)NC(=O)[C@H](CC(N)=O)NC(=O)[C@H](Cc2ccccc2)NC(=O)[C@H](C)NC(=O)[C@H](CC(=O)O)NC(=O)CNC(=O)[C@H](CC2CCC2)NC1=O)[C@@H](C)CC) [SEQ ID NO: 1698] | 26.6 | 27.5 | 89
